The record followed here is publication PMC10164584, “Structural basis for the tRNA-dependent activation of the terminal complex of selenocysteine synthesis in humans” (Nucleic Acids Research, 2023).

Data set [1] concerns the target T1, human SepSecS (Homo sapiens, UniProt Q9HD40, V491A).
T1 sequence (Q9HD40 1-501 V491A): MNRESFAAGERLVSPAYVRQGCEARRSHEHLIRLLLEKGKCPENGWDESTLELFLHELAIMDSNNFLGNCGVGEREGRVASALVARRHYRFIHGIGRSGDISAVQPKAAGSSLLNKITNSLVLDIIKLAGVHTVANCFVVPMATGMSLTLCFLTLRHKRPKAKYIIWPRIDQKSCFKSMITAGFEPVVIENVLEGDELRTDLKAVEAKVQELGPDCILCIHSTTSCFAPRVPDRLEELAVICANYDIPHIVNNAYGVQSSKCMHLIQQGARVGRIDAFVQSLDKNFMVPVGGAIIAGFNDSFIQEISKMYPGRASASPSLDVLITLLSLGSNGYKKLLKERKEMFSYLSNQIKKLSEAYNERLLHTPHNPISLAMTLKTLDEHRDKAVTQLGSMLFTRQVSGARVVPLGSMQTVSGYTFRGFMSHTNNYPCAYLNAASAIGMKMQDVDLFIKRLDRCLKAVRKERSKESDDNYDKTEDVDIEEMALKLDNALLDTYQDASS
The following applies: holo SepSecS without bound tRNA; P-loop site near active site.

Data set [2] concerns Q399A SepSecS (human). Put plainly: MST. As to conditions: MST: 20 mM HEPES pH 8.0, 150 mM NaCl, 5% glycerol, 0.05% Tween-20, 0.4 mg/ml BSA, room temperature, 5 nM labeled SepSecS; van't Hoff series 24-34 C.
For data set [3], the system named is SepSecS E37L (human). The data set can be described thus: MST. As to conditions: MST: 20 mM HEPES pH 8.0, 150 mM NaCl, 5% glycerol, 0.05% Tween-20, 0.4 mg/ml BSA, room temperature, 5 nM labeled SepSecS; van't Hoff series 24-34 C.
The subject of data set [4] is SepSecS F396V (human). Put plainly: MST. The following applies: MST: 20 mM HEPES pH 8.0, 150 mM NaCl, 5% glycerol, 0.05% Tween-20, 0.4 mg/ml BSA, room temperature, 5 nM labeled SepSecS; van't Hoff series 24-34 C.
The subject of data set [5] is SepSecS H30A (human). The data set can be described thus: MST. As to conditions: MST: 20 mM HEPES pH 8.0, 150 mM NaCl, 5% glycerol, 0.05% Tween-20, 0.4 mg/ml BSA, room temperature, 5 nM labeled SepSecS; van't Hoff series 24-34 C.
Data set [6] has as its system SepSecS K38M (human). The data set can be described thus: MST. The following applies: MST: 20 mM HEPES pH 8.0, 150 mM NaCl, 5% glycerol, 0.05% Tween-20, 0.4 mg/ml BSA, room temperature, 5 nM labeled SepSecS; van't Hoff series 24-34 C.
Data set [7] relates to SepSecS R26A (human). The data set can be described thus: MST. The following applies: MST: 20 mM HEPES pH 8.0, 150 mM NaCl, 5% glycerol, 0.05% Tween-20, 0.4 mg/ml BSA, room temperature, 5 nM labeled SepSecS; van't Hoff series 24-34 C.
For data set [8], the system named is SepSecS R33A (human). The data set can be described thus: MST. As to conditions: MST: 20 mM HEPES pH 8.0, 150 mM NaCl, 5% glycerol, 0.05% Tween-20, 0.4 mg/ml BSA, room temperature, 5 nM labeled SepSecS; van't Hoff series 24-34 C.
Data set [9] deals with SepSecS R398A (human). The data set can be described thus: MST. The following applies: MST: 20 mM HEPES pH 8.0, 150 mM NaCl, 5% glycerol, 0.05% Tween-20, 0.4 mg/ml BSA, room temperature, 5 nM labeled SepSecS; van't Hoff series 24-34 C.
Data set [10] deals with SepSecS S27A (human). The data set can be described thus: MST. The following applies: MST: 20 mM HEPES pH 8.0, 150 mM NaCl, 5% glycerol, 0.05% Tween-20, 0.4 mg/ml BSA, room temperature, 5 nM labeled SepSecS; van't Hoff series 24-34 C.
The subject of data set [11] is SepSecS S393A (human). Put plainly: MST. The following applies: MST: 20 mM HEPES pH 8.0, 150 mM NaCl, 5% glycerol, 0.05% Tween-20, 0.4 mg/ml BSA, room temperature, 5 nM labeled SepSecS; van't Hoff series 24-34 C.
In data set [12] the test system is SepSecS T397V (human). Put plainly: MST. The following applies: MST: 20 mM HEPES pH 8.0, 150 mM NaCl, 5% glycerol, 0.05% Tween-20, 0.4 mg/ml BSA, room temperature, 5 nM labeled SepSecS; van't Hoff series 24-34 C.
Data set [13] deals with SepSecS WT (human). Put plainly: MST. As to conditions: MST: 20 mM HEPES pH 8.0, 150 mM NaCl, 5% glycerol, 0.05% Tween-20, 0.4 mg/ml BSA, room temperature, 5 nM labeled SepSecS; van't Hoff series 24-34 C.

As for `O=P(O)(O)O` [phosphate ion], the “X-ray crystallography, 2.25 A” value in data set [1] is reported as “structure of holo SepSecS possessed a phosphate ion bound to the P-loop”.

As to tRNASec WT (unacylated), the Kd in data set [2] worked out at 567 nM; in data set [3], 166 nM; in [4], 44.1 nM; in [5] it was 166 nM; in data set [6], 1670 nM; in data set [7] it was 516 nM. Further, the Kd in [8] amounted to 28.9 nM; in data set [9], 2530 nM; in data set [10], 133 nM; in [11], 197 nM; in data set [12], 62.8 nM; in data set [13], 134 nM.
